Test results reported in patent US20210145978A1, “ANTI-CD71 ACTIVATABLE ANTIBODY DRUG CONJUGATES AND METHODS OF USE THEREOF” (AbbVie Inc., priority 2017, published 2021).

Assays:
[1] = Tolerability and stability of AADCs and ADC in cynomolgus monkeys (Example 10); type: in vivo, cynomolgus monkey
Method: In this study, cynomolgus monkeys were treated intravenously with the indicated AADC or ADC with the indicated dosage at days 1 and […]. Only one dose was tolerated for anti-CD71 TF02.13-3011-vc-MMAE AADC and only one dose was administered for anti-CD71-vc-MMAE E2 (i.e. having a DAR of ˜2) ADC. The stability of the activatable antibodies (i.e. total activatable antibody vs intact activatable antibody) in the samples obtained from each animals was performed as described in Example 9 using reverse phase LC/MS/MS)
The body weight loss was determined on the lowest measure weight following the 1st administered dose. The baseline neutrophil count was at least 1000 per μL.

[2] = Non-GLP pilot toxicity studies in cynomolgus monkeys; type: in vivo, cynomolgus monkey
Method: Terminal necropsies were performed on the test animals on day 29 (7 days after the last dose). Assessments during the study included clinical signs, body weight, food consumption, clinical pathology, anatomic pathology, TK, and immunogenicity.

CD71 on NCI H292 cells = biological target: T1, CD71 on NCI H292 cells (Homo sapiens, UniProt P02786); assay: FACS binding to NCI H292 cells, masking efficiency (Example 3); conditions: relative to parental Ab 21.12
T1 construct: endogenous in cells; host or cells: NCI-H292
T1 sequence (P02786 whole entry): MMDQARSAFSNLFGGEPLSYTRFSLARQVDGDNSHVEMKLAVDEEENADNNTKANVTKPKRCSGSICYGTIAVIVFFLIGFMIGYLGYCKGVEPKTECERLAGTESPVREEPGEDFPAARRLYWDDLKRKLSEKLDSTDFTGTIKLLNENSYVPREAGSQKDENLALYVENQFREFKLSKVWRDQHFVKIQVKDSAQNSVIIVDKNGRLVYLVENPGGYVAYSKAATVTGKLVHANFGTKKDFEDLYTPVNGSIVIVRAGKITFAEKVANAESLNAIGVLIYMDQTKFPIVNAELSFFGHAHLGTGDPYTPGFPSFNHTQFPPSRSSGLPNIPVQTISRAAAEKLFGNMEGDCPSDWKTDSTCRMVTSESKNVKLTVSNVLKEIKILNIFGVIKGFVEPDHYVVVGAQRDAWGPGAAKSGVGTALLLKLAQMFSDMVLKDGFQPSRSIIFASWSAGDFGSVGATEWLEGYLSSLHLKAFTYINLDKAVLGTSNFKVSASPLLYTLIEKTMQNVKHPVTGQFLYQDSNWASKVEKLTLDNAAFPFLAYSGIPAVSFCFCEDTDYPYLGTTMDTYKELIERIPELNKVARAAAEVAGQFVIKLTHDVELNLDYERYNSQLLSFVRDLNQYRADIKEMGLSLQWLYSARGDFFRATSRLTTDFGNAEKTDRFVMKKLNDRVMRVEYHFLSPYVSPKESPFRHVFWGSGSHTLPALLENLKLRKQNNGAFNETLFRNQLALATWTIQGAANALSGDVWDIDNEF
Method: Binding of anti-CD71 activatable antibodies of the present disclosure to the NCI H292 (also referred to herein as H292) cell line was evaluated using FACS. Briefly, cells were labeled with huCD71 antibody or activatable antibody at a range of concentrations and subsequently detected with an Alexa Fluor 647 labeled goat anti-human IgG secondary antibody to determine a binding curve.

human CD71 on H292 cells = biological target: T2, human CD71 on H292 cells (Homo sapiens, UniProt P02786); assay: FACS binding to cells, Table 3B; conditions: binding curves of FIG. 3C
T2 construct: endogenous in cells; host or cells: NCI-H292
T2 sequence (P02786 whole entry): as above
Excerpt: (§1) FIGS. 3C and 3D show in a FACS assay the exemplary results that anti-CD71 activatable antibodies of the present disclosure and anti-CD71 conjugated activatable antibodies of the present disclosure bind cells expressing human CD71 (FIG. 3C) and cynomolgus CD71 (FIG. 3D) with a higher dissociation constant and lower affinity than that of the corresponding protease-activated anti-CD71 activatable antibody or protease-activated anti-CD71 conjugated activatable antibody of the present disclosure.
(§2) In the exemplary study shown in FIGS. 3C and 3D, the binding of the antibodies of the present disclosure to the indicated cell lines were performed using a standard FACS labelling method. […] In addition, the binding affinity of the anti-CD71 activatable antibody (anti-CD71 TF02.13-2011 (Act)) and the E2 (i.e. having a DAR of ˜2) anti-CD71 conjugated activatable antibody (anti-CD71 TF02.13-2011-vcMMAE E2 (Act)) were also assayed following protease-activation that cleaved the cleavable moiety therein. Each test article was applied at the indicated concentrations and subsequently detected with an Alexa Fluor 647 labeled goat anti-human IgG secondary antibody.

[3] = tested on: cynomolgus CD71 on CHO cells; assay: FACS binding to cells, Table 3B; conditions: binding curves of FIG. 3D; read-out: CHO w/ Cynomolgus CD71 FACS EC50
Excerpt: as §1, §2

[4] = 0.6 mg/kg, q3wx2, non-GLP study

B1: Ab21.12-vc-MMAE E2: unmasked parental anti-CD71 antibody drug conjugate (ADC), Ab21.12 with vc-MMAE (conjugate)
VH: QVQLVQSGAEVKKPGASVKMSCKASGYTFTSYWMHWVRQAPGQGLEWIGAIYPGNSETGYAQKFQGRATLTADTSTSTAYMELSSLRSEDTAVYYCTRENWDPGFAFWGQGTLITVSS
VL: DIQMTQSPSSLSASVGDRVTITCSASSSVYYMYWFQQKPGKAPKLWIYSTSNLASGVPSRFSGSGSGTDYTLTISSMQPEDFATYYCQQRRNYPYTFGQGTKLEIK
modifications: vc-MMAE conjugate, DAR ~2
notes: unmasked parental anti-CD71 antibody drug conjugate (ADC), Ab21.12 with vc-MMAE
Avg. Neutrophil Count ± SD (per μL) ([1]; 2 mg/kg IV, one dose, baseline at least 1000 per μL): 70 per μL
Body weight loss ([1]; 2 mg/kg IV, one dose, lowest weight after 1st dose): ~8%
lethality, time after the first dose ([1]; non-masked E2 ADC, cynomolgus monkeys (2 mg/kg in Table 5)): ≤ 8 days
Average neutrophil count ± SD [2, 4]: 280 ± 42
Body weight loss [2, 4]: 4%
Tolerability [2, 4]: Tolerated
Average neutrophil count ± SD ([2]; 2 mg/kg, q3wx2, non-GLP study): 70
Body weight loss ([2]; 2 mg/kg, q3wx2, non-GLP study): 6%
test article-related findings ([2]; 0.6 to 18 mg/kg IV bolus): consisted primarily of hematologic toxicity
toxicity (hunched posture, decreased activity, body temperature elevation) ([2]; 6 and 2 mg/kg): Severe toxicity
time to lack of tolerability after a single dose ([2]; single dose at 2 mpk): ≤ 8 days
mortality ([2]; single dose at >2 mg/kg): mortality attributed to secondary infection was observed

B2: Ab21.12: humanized anti-CD71 antibody, VH of SEQ ID NO: 5 and VL of SEQ ID NO: 7 (antibody, V domains shown)
VH: QVQLVQSGAEVKKPGASVKMSCKASGYTFTSYWMHWVRQAPGQGLEWIGAIYPGNSETGYAQKFQGRATLTADTSTSTAYMELSSLRSEDTAVYYCTRENWDPGFAFWGQGTLITVSS
VL: DIQMTQSPSSLSASVGDRVTITCSASSSVYYMYWFQQKPGKAPKLWIYSTSNLASGVPSRFSGSGSGTDYTLTISSMQPEDFATYYCQQRRNYPYTFGQGTKLEIK
Masking Efficiency (CD71 on NCI H292 cells): 1
EC50 (human CD71 on H292 cells): 1.02 nM

B3: Ab 21.12-vc-M MAE: anti-CD71 Ab 21.12 conjugated to vc-MMAE; DAR not stated in Table 3B (conjugate)
VH: QVQLVQSGAEVKKPGASVKMSCKASGYTFTSYWMHWVRQAPGQGLEWIGAIYPGNSETGYAQKFQGRATLTADTSTSTAYMELSSLRSEDTAVYYCTRENWDPGFAFWGQGTLITVSS
VL: DIQMTQSPSSLSASVGDRVTITCSASSSVYYMYWFQQKPGKAPKLWIYSTSNLASGVPSRFSGSGSGTDYTLTISSMQPEDFATYYCQQRRNYPYTFGQGTKLEIK
modifications: vc-MMAE conjugate
EC50 [3]: 0.291 nM
